One data set has as its target T1, Bd0055 (Bdellovibrio bacteriovorus HD100, UniProt Q6MRM1 1-64).
T1 sequence: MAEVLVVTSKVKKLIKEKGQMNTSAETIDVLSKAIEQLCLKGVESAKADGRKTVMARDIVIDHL
The data set can be described thus: X-ray crystallography; 10 mM NaCl, 0.1 mM EDTA, 50 mM HEPES pH 7.5; 16:1 protein to DNA; 1 dimer per 2.5 bp; FP/FRET: 10 nM DNA, 10 mM NaCl, 1 mM EDTA, 50 mM HEPES pH 6, RT; EMSA: 1 uM DNA, 10 mM NaCl, 1 mM EDTA, 50 mM HEPES pH 7.5, RT. The following applies: protein: recombinant; chain copies: 2; blunt.

Data set [1] deals with the molecule itself. The data set can be described thus: crystal structure; apo Bd0055; hanging drop, 3.2 M (NH4)2SO4, 100 mM BICINE pH 9; 1.8 Å.

B1: 35 bp DNA (dsDNA)
DNA 1: TCTTGCACTAAGAGCTACTGGAGTGCGTCAGATGT
DNA 2: ACATCTGACGCACTCCAGTAGCTCTTAGTGCAAGA
In the case of B1, in the data set with Bd0055, the binding result is recorded as “binds”.

B2: Bd0055, Bdellovibrio bacteriovorus histone (natural protein, Bdellovibrio bacteriovorus HD100, UniProt Q6MRM1 1-64, looked up)
chain: T1 sequence
notes: Bd0055, singlet histone fold protein of Bdellovibrio bacteriovorus HD100; the ORF was expressed; No tag is mentioned; purified by ion exchange, heparin and size exclusion; also called wildtype Bd0055; B. bacteriovorus histone; source: E. coli, codon-optimized ORF in a pET vector, purified (SP HP, Heparin HP, S75)
As for B2, the “stoichiometry N” value in data set [1] was found to be 2.

By stoichiometry N is commonly meant a count of units in the complex or per binding partner.

The values above are taken from publication doi:10.1101/2023.01.26.525422, “Histone-organized chromatin in bacteria” (bioRxiv, 2023).
